In PMC4100148:
One block for each substance: values may come before it.

What was measured:
[1] = target: CFP-SelP-H (His-rich domain of selenoprotein P fused to CFP) (human) (UniProt P49908); test: FRET or BRET; acceptor (receptor) photobleaching method; HEK293T cells co-transfected with CFP and YFP plasmids; ROI bleached at 515 nm, donor imaged at 405 nm excitation; E = 1 - I(prebleaching)/I(postbleaching)
[2] = target: SelP-H (His-rich domain of selenoprotein P), purified (human) (UniProt P49908); test: ITC; MicroCal iTC-200, 25 °C, Tris buffer (50 mM, pH 7.4); 1.3 mM Tub-C titrated into 228 μM SelP-H, 20 injections of 2 μL; sequential binding model (n = 2)
[3] = target: CFP-SelP' (Sec to Cys mutant of selenoprotein P fused to enhanced cyan fluorescence protein) (human) (UniProt P49908); test: FRET or BRET; sensitized emission method; HEK293T cells co-transfected with CFP (donor) and YFP (receptor) plasmids, confocal microscope 48 h after transfection, excitation 405 and 515 nm
[4] = target: CFP-SelP' (Sec to Cys mutant of selenoprotein P fused to enhanced cyan fluorescence protein) (human) (UniProt P49908); test: FRET or BRET; acceptor (receptor) photobleaching method; HEK293T cells co-transfected with CFP and YFP plasmids; ROI bleached at 515 nm, donor imaged at 405 nm excitation; E = 1 - I(prebleaching)/I(postbleaching)

FRET efficiency E [1]: 22.8%
Substance: YFP-Tub-C (C-terminal domain of α-tubulin, the last 42 residues, fused to YFP) (from UniProt Q71U36 1-451) (domain or fragment)

association constant K1 (sequential binding model, first site) [2]: 2100 M⁻¹ | association constant K2 (sequential binding model, second site) [2]: 1500 M⁻¹ | dH1 (sequential binding model, first site) [2]: -1.8 kcal/mol | dH2 (sequential binding model, second site) [2]: 6.9 kcal/mol | stoichiometry N [2]: 2
Substance: Tub-C (the last 42 residues of α-tubulin), purified (from UniProt Q71U36 1-451) (domain or fragment)

FRET efficiency E (average) [4]: 21.8% | FRET efficiency E (cell 1) [4]: 17.6% | FRET efficiency E (cell 2) [4]: 14.1% | FRET efficiency E (cell 3) [4]: 12.2% | FRET efficiency E (cell 4) [4]: 31.5% | FRET efficiency E (cell 5) [4]: 20% | FRET efficiency E (cell 6) [4]: 26.7% | FRET efficiency E (cell 7) [4]: 19.2% | FRET efficiency E (cell 8) [4]: 17.9% | FRET efficiency E (cell 9) [4]: 35.6% | FRET efficiency E (cell 10) [4]: 20.2% | FRET efficiency E (cell 11) [4]: 25%
Substance: YFP-Tub (α-tubulin fused to yellow fluorescence protein) (from UniProt Q71U36 1-451) (natural protein)
FRET efficiency E (average) [3]: 21.3% | FRET efficiency E (cell 1) [3]: 19.7% | FRET efficiency E (cell 2) [3]: 18.7% | FRET efficiency E (cell 3) [3]: 32.6% | FRET efficiency E (cell 4) [3]: 17.7% | FRET efficiency E (cell 5) [3]: 18%
